Data published in patent publication US20100041875A1 (PROGENICS PHARMACEUTICAL INC AND CORNELL RESEARCH FOUNDATION, published 2010).

Molecular target: full-length WT JR-FL (gp160) Env (JR-FL WT) (HIV-1 isolate JR-FL (subtype B), UniProt P20871 32-848)
Test: cell-based or functional assay

B1: MAb 2G12 (antibody, V domains shown)
VH: EVQLVESGGGLVKAGGSLILSCGVSNFRISAHTMNWVRRVPGGGLEWVASISTSSTYRDYADAVKGRFTVSRDDLEDFVYLQMHKMRVEDTAIYYCARKGSDRLSDNDPFDAWGPGTVVTVSP
VL: VVMTQSPSTLSASVGDTITITCRASQSIETWLAWYQQKPGKAPKLLIYKASTLKTGVPSRFSGSGSGTEFTLTISGLQFDDFATYHCQHYAGYSATFGQGTRVEIKR
  neutralization of Env-pseudotyped virus infectivity (U87.CD4.CCR5 cells), mean IC50: 1.6 µg/mL
